Where a chain is given by its changes, count along the chain named.

First the molecules themselves.
B1: SEQ ID NO 23 (designed binder, not shown: small tags and cut ends)
chain: MLPAPKNLVVSRVTEDSARLSWTAPDAAFDSFAIWYHEWYGDGEAIVLTVPGSERSYDLTGPKPGTEYRVRISGVKGGFESGPLSAIFTT
B2: SEQ ID NO 27 (designed binder, not shown: small tags and cut ends)
chain: MLPAPKNLVVSRVTEDSARLSWTAPDAAFDSFRISYAETVRQGEAIVLTVPGSERSYDLTVETGYRNWVMILGVKGGPGSLPLSAIFTT
B3: SEQ ID NO 29 (designed binder, not shown: small tags and cut ends)
chain: MLPAPKNLVVSRVTEDSARLSWTAPDAAFDSFWIEYWEAVGFGEAIVLTVPGSERSYDLTGLKPGTEYFVGIYGVKGGYLSAPLSAIFTT
B4: SEQ ID NO 31 (designed binder, not shown: small tags and cut ends)
chain: MLPAPKNLVVSRVTEDSARLSWTAPDAAFDSFTIEYSEHPIDGEAIPLFVPGSERSYDLTGLKPGTEYYVRIHGVKGGWFSHPLWAFFTT
B5: SEQ ID NO 22 (designed binder, not shown: small tags and cut ends)
chain: MLPAPKNLVVSRVTEDSARLSWTAPDAAFDSFWYLELQFAGEAIVLTVPGSERSYDLTGLKPGTEYNVPITGVKGGIISFPLSAIFTT
B6: SEQ ID NO 25 (designed binder, not shown: small tags and cut ends)
chain: MLPAPKNLVVSRVTEDSARLSWTAPDAAFDSFPIWYLEKSYQGEAIVLTVPGSERSYDLTGLKPGTEYVVPIIGVKGGRDSCPLSAIFTT
B7: SEQ ID NO 35 (designed binder, not shown: small tags and cut ends)
chain: MLPAPKNLVVSRVTEDSARLSWTAPDAAFDSFPISYIESIADGEAIVLTVPGSERSYDLTGLKPGTEYWVAIVGVKGGPFSWSLSAIVTT
B8: SEQ ID NO 3 (designed binder, not shown: small tags and cut ends)
chain: MLPAPKNLVVSRVTEDSARLSWTAPDAAFDSFNIEYAETRWYGEAIVLTVPGSERSYDLTGLKPGTEYVVPIDGVKGGIASKPLSAIFTT
B9: SEQ ID NO 33 (designed binder, not shown: small tags and cut ends)
chain: B8 chain with N33G, E35A, A37V, T39S, R40Y, V69N, D73Y, I79D, A80G, K82G
B10: SEQ ID NO 24 (designed binder, not shown: small tags and cut ends)
chain: MLPAPKNLVVSRVTEDSARLSWTAPDAAFDSFMIRYQEGTRWGEAIVLTVPGSERSYDLTGLKPGTEYIVMIAGVKGGQISLPLSAIFTT
B11: SEQ ID NO 32 (designed binder, not shown: small tags and cut ends)
chain: MLPAPKNLVVSRVTEDSARLSWQGVARAFDSFLITYREQIFAGEVIVLTVPGSERSYDLTGLKPGTEYGVTIAGVKGGWRSKPLNAESTT
B12: SEQ ID NO 30 (designed binder, not shown: small tags and cut ends)
chain: MLPAPKNLVVSRVTEDSARLSWTAPDAAFDSFIIHYVEQQLIGEAIVLTVPGSERSYDLTGLKPGTEYPVPITGVKGGACSWPLSAIFTT
B13: SEQ ID NO 34 (designed binder, not shown: small tags and cut ends)
chain: B12 chain with I33Y, H35T, Q39L, Q40N, I42A, T73L, A79S, C80L, W82Q
B14: SEQ ID NO 241 (designed binder, not shown: small tags and cut ends)
chain: MLPAPKNLVVSRVTEDSARLSWTAPDAAFDSFFIGYLEPQPPGEAIHLGVPGSERSYDLTGLKPGTEYNVTIQGVKGGFPSIPLFASFTT
B15: SEQ ID NO 251 (designed binder, not shown: small tags and cut ends)
chain: B14 chain with H47G, G49W, I82D, F85Q, S87V
B16: SEQ ID NO 243 (designed binder, not shown: small tags and cut ends)
chain: B14 chain with G49A, I82V, F85A, S87V
B17: SEQ ID NO 255 (designed binder, not shown: small tags and cut ends)
chain: B14 chain with H47L, G49F, I82T, F85S
B18: SEQ ID NO 242 (designed binder, not shown: small tags and cut ends)
chain: MLPAPKNLVVSRVTEDSARLSWTAPDAAFDSFYIAYAEPRPDGEAIQLLVPGSERSYDLTGLKPGTEYSVLIHGVKGGLLSSPLYAAFTT
B19: SEQ ID NO 259 (designed binder, not shown: small tags and cut ends)
chain: B18 chain with L49G, Y85L, A87V
B20: SEQ ID NO 248 (designed binder, not shown: small tags and cut ends)
chain: B18 chain with Q47W, L49G, Y85H, A87T
B21: SEQ ID NO 253 (designed binder, not shown: small tags and cut ends)
chain: B18 chain with Q47I, L49H, Y85D, A87Y
B22: SEQ ID NO 244 (designed binder, not shown: small tags and cut ends)
chain: B18 chain with Q47S, L49Q, Y85G, A87H
B23: SEQ ID NO 256 (designed binder, not shown: small tags and cut ends)
chain: B18 chain with L49T, Y85H, A87Y
B24: SEQ ID NO 252 (designed binder, not shown: small tags and cut ends)
chain: B18 chain with Q47V, L49H, Y85D, A87F
B25: SEQ ID NO 250 (designed binder, not shown: small tags and cut ends)
chain: B18 chain with Q47L, L49R, A87K
B26: SEQ ID NO 246 (designed binder, not shown: small tags and cut ends)
chain: B18 chain with L49H, A87F
B27: SEQ ID NO 257 (designed binder, not shown: small tags and cut ends)
chain: B18 chain with L49G, Y85R, A87Y
B28: SEQ ID NO 249 (designed binder, not shown: small tags and cut ends)
chain: B18 chain with Q47V, L49E, Y85H, A87N
B29: SEQ ID NO 247 (designed binder, not shown: small tags and cut ends)
chain: B18 chain with Q47L, L49H, Y85R, A87S
B30: SEQ ID NO 254 (designed binder, not shown: small tags and cut ends)
chain: B18 chain with Q47L, L49A, Y85S, A87K
B31: SEQ ID NO 258 (designed binder, not shown: small tags and cut ends)
chain: B18 chain with Q47L, L49E, Y85V, A87F
B32: SEQ ID NO 245 (designed binder, not shown: small tags and cut ends)
chain: B18 chain with Q47A, L49W, Y85V, A87S

Sequence of human serum albumin (human) (P02768 25-609 limits assumed): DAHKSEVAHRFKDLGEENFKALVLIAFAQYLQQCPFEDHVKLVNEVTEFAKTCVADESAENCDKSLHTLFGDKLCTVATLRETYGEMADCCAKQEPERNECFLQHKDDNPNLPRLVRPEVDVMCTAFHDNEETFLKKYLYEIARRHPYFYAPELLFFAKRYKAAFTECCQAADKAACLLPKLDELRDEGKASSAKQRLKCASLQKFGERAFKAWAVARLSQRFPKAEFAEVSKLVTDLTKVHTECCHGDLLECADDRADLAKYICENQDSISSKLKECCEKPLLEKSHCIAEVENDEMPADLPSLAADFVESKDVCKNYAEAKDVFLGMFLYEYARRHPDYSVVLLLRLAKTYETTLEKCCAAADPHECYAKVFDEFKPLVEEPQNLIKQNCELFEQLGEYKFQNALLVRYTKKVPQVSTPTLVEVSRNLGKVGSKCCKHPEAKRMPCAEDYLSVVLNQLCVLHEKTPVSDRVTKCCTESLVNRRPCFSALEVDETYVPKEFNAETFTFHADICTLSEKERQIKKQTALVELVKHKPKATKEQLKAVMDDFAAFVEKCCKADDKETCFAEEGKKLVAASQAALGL

One assay addresses human serum albumin (human) (UniProt P02768). Put plainly: primary solution ELISA screen.
Molecule B1 yielded an RLU of 12600 RLU.
On the same count and under the same terms, for B2 the value was 2350 RLU; for B3, 3750 RLU; for B4, 4650 RLU.
In the case of B5, the RLU came to 30000 RLU.
Consider B6, for which the RLU came out at 3850 RLU.
Still for that read-out and setting: under B7 stands 18800 RLU; under B8, 9950 RLU.
Same read-out and setting: under B9 stands 2050 RLU; under B10, 6550 RLU.
Same read-out and setting: for B11 the value was 4550 RLU; for B12, 4450 RLU.
B13 displayed an RLU of 8100 RLU.

For the next assay the target is unchanged. Put plainly: solution ELISA screen (luminescence).
The molecule B14 displayed an RLU of 26600 RLU.
The same measure, in the same setting: under B15 stands 26100 RLU; under B16, 30900 RLU.
B17 had an RLU of 102000 RLU.
On the same count and under the same terms, for B18 the value was 20400 RLU.
Same read-out and setting: under B19 stands 25400 RLU.
On the same count and under the same terms, under B20 stands 34000 RLU; under B21, 37700 RLU; under B22, 18000 RLU.
In the case of B23, the RLU is 76100 RLU.
Still for that read-out and setting: for B24 the value was 72800 RLU; for B25, 48400 RLU; for B26, 25800 RLU.
In the case of B27, the RLU came to 29800 RLU.
Same read-out and setting: under B28 stands 24100 RLU; under B29, 19000 RLU.
The same measure, in the same setting: under B30 stands 21500 RLU; under B31, 26500 RLU; under B32, 18400 RLU.

(Values after patent US20220332795A1.)
